In article PMC1762433:

Target: FBXW8 (UniProt Q8N3Y1)
Experiment: HA IP, V5 immunoblot
Settings: reference: HA-cyclin D1 wild type; sites T286

cyclin D1 (from UniProt P24385) HA-cyclin D1 T286A
binding against the reference: weaker
